Experimental data taken from PMC13227277, “Targeting CIRP and IL-6R-mediated microglial inflammation to improve outcomes in intracerebral hemorrhage” (Journal of Advanced Research, 2025).

Legend:
[1] = biological target: T1, recombinant human IL-6 receptor alpha (IL-6Rα) (human, UniProt P08887 20-365); test: SPR; competitive inhibition: IL-6Rα on a CM5 chip saturated with TCC (100 times its affinity constant; 1.5 μg/mL), then CIRBP as analyte; details: both partners purified
T1 construct: Interleukin-6 receptor subunit alpha, human; UniProtKB P08887 is printed for the docking; also called rhIL-6Rα; rhIL-6R; source: recombinant
T1 sequence (looked up): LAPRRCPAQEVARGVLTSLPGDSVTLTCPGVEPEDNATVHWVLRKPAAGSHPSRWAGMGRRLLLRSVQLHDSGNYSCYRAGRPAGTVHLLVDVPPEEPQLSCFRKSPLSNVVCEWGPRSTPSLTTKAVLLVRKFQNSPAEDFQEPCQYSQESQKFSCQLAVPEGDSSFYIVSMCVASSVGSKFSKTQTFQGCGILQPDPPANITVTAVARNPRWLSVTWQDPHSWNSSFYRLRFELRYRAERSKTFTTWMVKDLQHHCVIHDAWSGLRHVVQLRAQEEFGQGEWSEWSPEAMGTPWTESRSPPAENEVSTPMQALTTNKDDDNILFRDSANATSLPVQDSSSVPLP

microglia = test: IL-6 release from CIRP-stimulated microglia, ELISA (TCC vs TC); format: cell-based, mouse; details: peptides 10 μM pre-treated 0.5 h, then rmCIRP 1 μg/mL 24 h, n = 3
Description: To validate the effects of TCC and TC in vitro, microglial cells were pre-treated with the peptides (10 μM) for 0.5 h, followed by stimulation with recombinant mouse CIRP (rmCIRP, 1 μg/mL) for 24 h to establish an inflammation model.
ELISA was used to quantify CIRP, MD2, IL-6, and TNF-α concentrations in blood and cerebrospinal fluid samples. Samples were processed and stored under standardized conditions to preserve protein integrity. Each target protein was measured using commercial ELISA kits, following the manufacturer’s instructions: Mouse CIRBP ELISA Kit (CSB-EL005440MO, CUSABIO), Mouse TNF-α ELISA Kit (EK282, Lianke Bio), Mouse IL-6 ELISA Kit (CSB-E04639m, CUSABIO), and Rat TNF-α ELISA Kit (EK382, Lianke Bio).
After disinfection with 75 % ethanol, the skin and skull were removed, and the brains were placed in ice-cold HBSS. The meninges were peeled off, the cortex was collected, and the hippocampus was discarded. Tissues were digested with 0.25 % trypsin at 37 °C for 12 min, centrifuged at 1200 rpm for 5 min, and resuspended in complete medium. The suspension was transferred to a T75 flask with 15 mL of complete medium. After 14 days, microglial cells were harvested by shaking the flask at 270–280 rpm for 30 min, and the supernatant was collected. […] CIRP (1 μg/mL for 24 h) was added to the microglia, which were divided into PBS, CIRP, and CIRP + TCC groups. […]

STAT3 = STAT3 phosphorylation following CIRP and IL-6R interaction, western blot; format: cell-based; details: n = 6
Description: Cells were divided into control and test groups. For transfection, solution A (plasmid diluted in Opti-MEM) and solution B (Lipofectamine 2000, Life Technologies, USA, diluted in Opti-MEM) were mixed at a 1:2 plasmid-to-lipofectamine ratio. After 6 h, the medium was replaced with DMEM, and GFP fluorescence was observed 24–48 h post-transfection to assess efficiency. Cells were divided into PBS, IL-6R, and CIRP (1 μg/mL for 24 h) groups for further analysis.
Cells were washed twice with PBS, lysed, and sonicated. After a 30-minute rest to ensure thorough lysis, the homogenate was centrifuged at 12,000 rpm at 4 °C for 15 min. The supernatant was collected for protein quantification using the BCA method. Samples were prepared at a concentration of 2 μg/μL, and 15 μL per well was loaded for gel electrophoresis. Proteins were transferred to membranes using a wet transfer method and blocked with 5 % non-fat milk. […] Membranes were incubated with primary antibodies overnight at 4 °C, followed by incubation with secondary antibodies (GAR-HRP, BIOSHARP; GAM-HRP, Jackson) at room temperature for 2 h. Membranes were washed three times with TBST and developed using a chemiluminescent substrate.

neurons = test: Neurons co-cultured with CIRP-treated microglial supernatant (CCK-8, immunofluorescence); format: cell-based, mouse
Description: Brain tissues were fixed in paraformaldehyde, dehydrated, and sectioned at 30 µm using a microtome (CM1900UV, Leica, Germany). Sections were floated onto glass slides and left overnight at room temperature. For cultured cells, after discarding the medium, cells were washed twice with PBS, fixed with precooled 4 % PFA at 4 °C for 10 min, and washed three times with PBS (10 min each) on a shaker. Cells were permeabilized with 0.3 % Triton X-100 in PBS for 20 min, blocked with 5 % donkey serum for 1 h, and incubated overnight at 4 °C with primary antibodies (Iba-1, Rabbit polyclonal, Wako; NeuN, Millipore; GFAP, CST; MBP, Abcam; SMI32, Millipore). The next day, sections were brought to room temperature, washed three times with PBST (PBS + Tween-20), and incubated with secondary antibodies for 1 h in the dark. […] Fluorescence was visualized using a DM4000B microscope and images were captured with a Leica TCS SP8 confocal microscope. […]
To mimic ischemic conditions, neurons at DIV7 were subjected to OGD. […] The supernatants were collected for subsequent CIRP quantification. […]
Microglia were exposed to 1, 10 100 μM concentrations of TCC or TC and PBS respectively for 24 h, and cell viability was measured. […] Cell viability was assessed using the Cell Counting Kit-8 (C0038, Beyotime) according to the manufacturer’s protocol. Absorbance at 450 nm was measured to determine cell viability.

[2] = tested on: Cirbp^−/− microglia vs WT microglia; test: TNF-α and IL-6 release, WT and Cirbp^−/− microglia with rmCIRP, ELISA; format: cell-based, mouse; details: CIRP treatment, 24 h, n = 3–4
Description: ELISA was used to quantify CIRP, MD2, IL-6, and TNF-α concentrations in blood and cerebrospinal fluid samples. Samples were processed and stored under standardized conditions to preserve protein integrity. Each target protein was measured using commercial ELISA kits, following the manufacturer’s instructions: Mouse CIRBP ELISA Kit (CSB-EL005440MO, CUSABIO), Mouse TNF-α ELISA Kit (EK282, Lianke Bio), Mouse IL-6 ELISA Kit (CSB-E04639m, CUSABIO), and […].
Primary cortical neurons were isolated from embryonic day 16–18 (E16–E18) C57BL/6 mouse embryos as previously described, and cultured in Neurobasal medium supplemented with B27 and GlutaMAX (Gibco).Primary microglial cells were isolated from the cortices of neonatal (day 1) C57BL/6J mice. After disinfection with 75 % ethanol, the skin and skull were removed, and the brains were placed in ice-cold HBSS. The meninges were peeled off, the cortex was collected, and the hippocampus was discarded. Tissues were digested with 0.25 % trypsin at 37 °C for 12 min, centrifuged at 1200 rpm for 5 min, and resuspended in complete medium. […]
RBCs were isolated via density gradient centrifugation and labeled with CFSE before being stereotactically injected into the right striatum. […] Cell viability was assessed using a Fixable Viability Dye, and flow cytometric analysis was subsequently performed. […]

B1: recombinant human CIRP (cold-inducible RNA-binding protein) (natural protein, UniProt Q14011 1-172, looked up)
chain: MASDEGKLFVGGLSFDTNEQSLEQVFSKYGQISEVVVVKDRETQRSRGFGFVTFENIDDAKDAMMAMNGKSVDGRQIRVDQAGKSSDNRSRGYRGGSAGGRGFFRGGRGRGRGFSRGGGDRGYGGNRFESRSGGYGGSRDYYSSRSQSGGYSDRSSGGSYRDSYDSYATHNE
notes: UniProtKB Q14011 is printed for the docking; also called rhCIRP; human CIRBP; source: recombinant
- KD in the presence of the competitor TCC (1.5 μg/mL) [1]: 17.7 nM
- IL-6 release in culture supernatants (microglia): significantly increased IL-6 levels
- phosphorylation of STAT3 (STAT3): induced phosphorylation of the STAT3
- neuronal morphology and axonal integrity (neurons; 24-hour co-culture with microglial supernatant, immunofluorescence, n = 4–6): altered morphology and reduced axonal integrity
- neuronal viability (neurons; microglial supernatant following CIRP with or without TCC, CCK-8, 24 h, n = 3): impaired neuronal viability
- IL-6 and TNF-α secretion, Cirbp^−/− vs WT microglia [2]: marked decrease in the secretion of both IL-6 and TNF-α levels
